The data set can be described thus: soluble on expression in E. coli; label from the status in PepcDB or PDB records.
On to “MTKIAFTGGGTVGHVSVNLSLIPTALSQGYEALYIGSKNGIEREMIESQLPEIKYYPISSGKLRRYISLENAKDVFKVLKGILDARKVLKKEKPDLLFSKGGFVSVPVVIAAKSLNIPTIIHESDLTPGLANKIALKFAKKIYTTFEETLNYLPKEKADFIGATIREDLKNGNAHNGYQLTGFNENKKVLLVMGGSLGSKKLNSIIRENLDALLQQYQVIHLTGKGLKDAQVKKSGYIQYEFVKEDLTDLLAITDTVISRAGSNAIYEFLTLRIPMLLVPLGLDQSRGDQIDNANHFADKGYAKAIDEEQLTAQILLQELNEMEQERTRIINNMKSYEQSYTKEALFDKMIKDALN”, for which the “soluble on expression in E. coli” value is given as “not soluble”.

Turning to “MEQNLKNIKISIIIPTLNEVGNIQQTIATTQPSVNIEVIVVDGGSQDDTVAIAQSLGVKVISSSPGRAVQMNTGAALAAGEILLFLHADTRLPVGFDEMIRAALQQPGVVAGAFALRIDADLAGLRWVEKGVYWRSHFFQMPYGDQAIFMTKAVFEKVGGFSELPIMEDFELMRRLKHIGKITVLGVAVITSGRRWLQRGVFQTTLINQVVIIAYLLGVAPAQLHSWYRQGKFFRIGGRLLEHHHHHH”, the “soluble on expression in E. coli” value was “soluble”.

On to “MGSDKIHHHHHHMNRLIGEKMNDVLSKVTDKEYLKQIEDVIKFHGHLSGGAFIGIQMYNIAKKVLDIKDTDRVYANCETRNCMPDAFQVLGNCTTGNKRLSIKDYDIMAVTVNKIIPENEVGTGVRIVFDHKKAEKYPALYNWFMNIKKVPHEEVISDLIDAGDSIYSWKSVEIHVSEKKPKFSAVCGLCGESFIKKGTDDENICPNCAEKSAE”, for which the “soluble on expression in E. coli” value is “not soluble”.

As for “MDIEERINLVLKKPTEEVLTVENLRHLFEIGAPLQHYIGFEISGYIHLGTGLMAGAKIADFQKAGIKTRVFLADWHSWINDKLGGDLEVIQEVALKYFKVGMEKSIEVMGGDPKKVEFVLASEILEKGDYWQTVIDISKNVTLSRVMRSITIMGRQMGEAIDFAKLIYPMMQVADIFYQGVTIAHAGMDQRKAHVIAIEVAQKLRYHPIVHEGEKLKPVAVHHHLLLGLQEPPKWPIESEEEFKEIKAQMKMSKSKPYSAVFIHDSPEEIRQKLRKAFCPAREVRYNPVLDWVEYIIFREEPTEFTVHRPAKFGGDVTYTTFEELKRDFAEGKLHPLDLKNAVAEYLINLLEPIRRYFEKHPEPLELMRSVKITR”, the “soluble on expression in E. coli” value is reported as “soluble”.

For the sequence “MEAKLQVGVLGFGTVGSGVIHILEEHQEKISQVTGYHISVKKVLVRDLEKNRRYETKGFELTTNPSDVLDDPEIAVVVEVMGSITTAREYILQALKAGKHVVTANKDLIALHGDELVAVAQANNCDLFYEASVAGGIPILRTIVNSLAADKIQKVMGIVNGTTNFMLTKMTTEKKSYEEVLAEAQALGFAESDPTNDVDGIDAARKMVIMTRLAFGMNVNLDNVETSGIRGISPEDIEVAYQLGYKIKLVGTAEETNGTVNVNVGPVLLPKAHPLAGVNYENNAVFVTGAAVGETMFYGPGAGELPTATSVVSDLITVAKNSRLGTNGNAFNSYKHETKHTPKEQVFSKYYLRLTMDDKTGTFLKLTQIFAEAGVGFDKILQQPYDDFTATVVIVTHSTSQAQLEQAITRVKNEPEMQMLAKYSVVEG”, the “soluble on expression in E. coli” value is “soluble”.

As to “MQRTGELPAEHVPVILESSGAGDFHLIDSGNGLKLEQYGDYRVVRPEAQALWRPLVPDRVWQNADAIFTGDTDEDGMGRWRFPKEALGETWPLSLLGVEFLGRFTAFRHVGVFPEQIVHWEWLKNAVETADRPLKVLNLFGYTGVASLVAAAAGAEVTHVDASKKAIGWAKENQVLAGLEQAPIRWICEDAMKFIQREERRGSTYDIILTDPPKFGRGTHGEVWQLFDHLPLMLDICREILSPKALGLVLTAYSIRASFYSMHELMRETMRGAGGVVASGELVIREAGLDGKTPGRVLSTSLFSRWEPK”, the “soluble on expression in E. coli” value is on record as “soluble”.

As to “MISYGELIRQIRQSKKISQKEVYTGVISKSYAIEFEKGTHAISSILLEKIVTKLMVSMEEFFFMYHQEELPEKEDFWEAYERACKTDEIAIWELLYQKISSEEGKINQVKSAAIKLELDHIKGKQVMDKKVVRILENYLIEAVFWTLEDIFLFTRMLPYLSLKSRVPFYYKLLNTLDRYRHFERGRRILQTAIASIIDDFIEKNEIEHMELMIRSLKKISDDCEGAYFKILCMYYHGIIERGEGAEIKQAIAILRVLGYENKALKYEAMYRQFSLKATI”, the “soluble on expression in E. coli” value is “not soluble”.

Consider “SSKIILIPSNIPQEFPEASISNPERLRILAQVKDFIPHESTIVIDKVPTITSEQSTYINICIFNLLEACSSRVLVPGTLVNIDAFYDGESINPVDIYEVNGANFTMENIQLIDEMNNSIGKFN”, for which the “soluble on expression in E. coli” value is “soluble”.

Regarding “ITTKRGEKGKVKINVKAGFDWNTPVKVPEYASGYDWARLANEARLGRYDSPIYTPEELEIIRSGLDTDLYPNIDWRDLMLKSGAPRYYANISFSGGSDNVRYYVSGQYTSEQGRYKTFSSENKYNTNTTYERYNYRANVDMNITKTTVLKVSVGGWLVNRTTPTRSTGDIWEDFAKFTPLSTPRKWSTGQWPRVDGQDTPEYHMTQRGYHTKWESKVETSVKLEQDLKFITPGLKFEGVFAFDTYNENIIKREKKEEVWEAQKYRDENGKLILKRVVNRSPMNQNKEVRGDKRYYFQASLDYNRLFAHAHRVGVFGMVYQEEKTDVNFDSSDLIGSIPRRNLAYSGRFTYAYKDKYLAEFNWGCTGSENFEHGKQFGFFPAVSAGYVISEEAFMKKALPWIDQFKIRASYGEVGNDVLDGRRFPYVSLIDTDDGGSYSFGEFGTNRVQAYRIRTLGTPNLTWEIAKKYDVGVDFSFFNGKISGALDWFLDKRDDIFMQRKHMPLTTGLADQTPMANVGKMKSYGWEGNIGFTQSIGQVNLQLRANFTYQTTDIIDKDEAANELWYKMDKGFQLNQSRGLIALGLFKDQDEIDRSPKQTSNRPILPGDIKYKDVNGDGVINDDDIVPLGYREVPGLQYGVGLSANWRNWNLSVLFQGTGK”, the “soluble on expression in E. coli” value was “not soluble”.

Turning to “MGSDKIHHHHHHMNLRRLKYFIKIVDVGSLTQAADILHIAQPALSQQLATLEGEVNQKLLIRTKRGVTPTNAGKILYSHAQAILRQCAQAQSAIDRAGGELSGSVSVGLAPGTAAQQLALPLMAEVQRQYPGIVLYFNENFGTTLSELIMNGRMDMAVIYDNRNIHGLRFIPLMKEPLCFVCPNSLMKPKKEITLAEVAQHNLFLPRIYNIMRKIVDEAFIKEGLTYQVKCEIESQTTLNAVLAAGMGCTIMPDSAARSMLNASNAWMAKIIDPDIYASLSFCMSDHLSLSEPAEVVKNILLSLMADRTPDNRPLTLVS”, the “soluble on expression in E. coli” value is reported as “not soluble”.

Turning to “MSLSKPLFIFEMANNHMGNVEHGVALIRAIRESCQGFDFDFGFKLQYRNLDTFIHSSFKGRDDVKYVKRFEETRLQPEQMQKLVAEMKANGFKAICTPFDEESVDLIEAHGIEIIKIASCSFTDWPLLERIARSDKPVVASTAGARREDIDKVVSFMLHRGKDLTIMHCVAEYPTPDDHLHLARIKTLRQQYAGVRIGYSTHEDPDLMEPIMLAVAQGATVFEKHVGLPTDQYGINNYSANPEQVRRWLAAAARALAMLGDGEDDAVSETEQASLRSLRRGVFATRPVAAGEALTADNVSFAFPPVEGQLTANEWSKYVRYTAKTPIAADAPVMAADLEPVNEGHHHHHH”, the “soluble on expression in E. coli” value is reported as “soluble”.

In the case of “EIRVFETAPEGLKILKDSEVVINTTTKEVAKNNQFSVSDASGTYNMVNDVKVG”, the “soluble on expression in E. coli” value is “soluble”.

For the sequence “MGSDKIHHHHHHMTIDDFYSFITLYKTRNISDAAIALNITQSALSKRLRNMQQELDTALISTRNKRQLTITESGEVFFRYAQTLTAQYQLLQQELLDYRELRRGTIQIGSVPVMAQYGLASKMSQFMQDYPQINFSLAELEGADLLTQLQHQSFDLGILRDVQSQQLNHSQFDAVTLTDDELKVVLPSDHPLAHQTSIQLPDLRPFDVVTLSPGSGVYERISERYQQAGFTPNIRFSTPHIETLLAMIAHTDRVTFLFAKSVAPFMTADFVMRPFTDPIISHLQLVYPHGTLSPAAQRFIHYLTD”, the “soluble on expression in E. coli” value is “not soluble”.

Turning to “QINPAARKELVIENDIETMHPVFKGFKDKLVPHLRMAAQGATLTGVNVPIGDKVFRWNLSPIRVDGDISGIIVQGQDITTLIEAEKQSNLARREAEKSAQARADFLAKMSHEIRTPINGILGVAQLLKDSVEAEEQKNQIDVLRHSGEHLLAVLNDILDFSKIEQGKFNIQKHPFSFADTMRTLENIYRPICENKGVELVIENQLDGNVEIFTDQVRLNQILFNLVSNAVKFTPSGCVRLHAELEQFYGADNSVLVVEISDTGIGIESDKLDEMFEPFVQEEATTTR”, the “soluble on expression in E. coli” value is reported as “not soluble”.

On to “MAKKDEVGGRVLQDVFLDWAKKYGPVVRVNVFHKTSVIVTSPESVKKFLMSTKYNKDSKMYRALQTVFGERLFGQGLVSECNYERWHKQRRVIDLAFSRSSLVSLMETFNEKAEQLVEILEAKADGQTPVSMQDMLTYTAMDILAKAAFGMETSMLLGAQKPLSQAVKLMLEGITASRNTLAKFLPGKRKQLREVRESIRFLRQVGRDWVQRRREALKRGEEVPADILTQILKAEEGAQDDEGLLDNFVTFFIAGHETSANHLAFTVMELSRQPEIVARLQAEVDEVIGSKRYLDFEDLGRLQYLSQVLKESLRLYPPAWGTFRLLEEETLIDGVRVPGNTPLLFSTYVMGRMDTYFEDPLTFNPDRFGPGAPKPRFTYFPFSLGHRSCIGQQFAQMEVKVVMAKLLQRLEFRLVPGQRFGLQEQATLKPLDPVLCTLRPRGWQPAPPPPPCHHHH”, for which the “soluble on expression in E. coli” value was “soluble”.

On to “GPGSMAMMLHTRRTVYSCICVHTHTHTHTCGCPPPTLSQKKKRSRLFMSSSSGDEYDPAEVTVHTTVASPSLSDTVVPSAAPFLRSAAGNASAATVAAAPALASLPKTAASVLPSSSSPTPPNTGNDVDGGYRLHSNIKGRIRCLTLNTAGTTLCAGSEDGQLCMWDFTVPLKSYRVQPTRVLTPFVNRISGLQPIIALTCASDDSYFVACQDGDSPVLVRASGEQLGYCAIGERGLMDVIQCKGHRAPVTCVAAHTHDAAAFFTGSQDGTVRLWNTATFKQRSVYAVKHGSGQLTDTHAVESVASLDSFHNGLGRVFASGGQDGRVQIWDSRVKYRPGGAIATVDMYAAAAPAGPDKVTEDPFMEKHVGGMMELHQKDAGASNASGSYGLAVRLGSAVKIIDLPQLSHSDGTTAPKAVLQERLPGCPTCSTRALCRLGAVVGLQQ”, for which the “soluble on expression in E. coli” value is listed as “soluble”.

“MEGLKLSEAELMIFIHPSQSRNVFQGICRELSSLLFQYNETFDGVLLAYDATVKSKQAKILTGLHPYFGVRVNTRLLLFDPKPKSFVEGKIVKISPESIHVIVLGFSAAVITDVDIREEFKYRVRDGEGSFVSRSHKRHALKLGTMLRLQVQSFDEEVMHIAGSLLPENTGCVKWLEKKSEEALPTDRDHKRRKLA”: the “soluble on expression in E. coli” value is given as “not soluble”.

On to “MGSDKIHHHHHHMASFQSFGIPGQLEVIKKALDHVRVGVVITDPALEDNPIVYVNQGFVQMTGYETEEILGKNCRFLQGKHTDPAEVDNIRTALQNKEPVTVQIQNYKKDGTMFWNELNIDPMEIEDKTYFVGIQNDITKQKEYEKLLEDSLTEITALSTPIVPIRNGISALPLVGNLTEERFNSIVCTLTNILSTSKDDYLIIDLSGLAQVNEQTADQIFKLSHLLKLTGTELIITGIKPELAMKMNKLDANFSSLKTYSNVKDAVKVLPIM”, for which the “soluble on expression in E. coli” value is “not soluble”.

For the sequence “MSLDPVGPISDEETSYYVRLQYNGEFLPLFTKVDGITYKKDKSDYSPLKPSFIAGGGAFGYKMDDIRVDVEGVYSYLNKNDVKDVTFDPANTIADSVTAISGLVNVYYDIAIEDMPITPYIGVGVGATYISTPLEPAVNDQKSKFGFAGQVKAGVSYDVTPEVKLYAGARYFGSYGANFDGKKTDPKDSTRQVTDAGAYKVLYSTVGAEAGVAFNFEGHHHHHH”, the “soluble on expression in E. coli” value is on record as “not soluble”.

The values are drawn from the DeepSol protein solubility set.
